Measured values as given in PMC10275869 (Nature Communications, 2023).

B1: 5B3 (human IgG1) (antibody, V domains shown)
VH: EVQLVESGGGLVKPGGSLKLSCAASGFTFSSYDMSWVRQTPEKRLEWVAMISSGGSYSYYPDSVKGRFTISRDNAKNTLYLQMSSLRSEDTAMYYCARQGDYAWFAYWGQGTLVTVSS
VL: DIQMTQSPASQSASLGESVTITCLASQTIGTWLAWYQQKPGKSPQLLIYAATSLADGVPSRFSGSGSGTKFSFKISSLQAEDFVSYYCQQFYSTPFTFGGGTKLEIK
B2: mAb66 (human IgG1) (antibody, V domains shown)
VH: ETGSGGGLVKPGGTLTLTCKASGFTLSSYWMCWVRQAPGKGLELIACLYTNGATTWYASWVNGRFAISRSTSRNTVDLNMTSLTAADTATYFCARGSGSGWSWFNIWGPGTLVTVSS
VL: TGVMTQTPASVEAAVGGTVTIKCQASQNIISSLAWYQQKPGQRPKLLIYYASTLASGVPSRFKGSGSGTQFTLTISDLECADAATYYCQSYYYSGITYGNAFGGGTEVVVK
B3: 12B2 (human IgG1) (antibody, V domains shown)
VH: QVQLKESGPGLVAPSQSLSITCTVSGFSLASYGVHWVRQPPGKGLEWLGVIWTGGSTNYNSALMSRLSINRDNSKSQVFLKLNSLQTDDTAIYYCARDRGYGYGGFAYWGQGTLVTVSA
VL: DIQMTQSPASLSASVGETVTITCRASENIYSYLAWYQHKQGKSPQLLVYNAKSLAEGVPSRFSGSGSGTQFSLKINSLQPEDFGSYYCQHHYGTPWTFGGGTKLEIK
B4: 1F5 (human IgG1) (antibody, V domains shown)
VH: DVQLQESGPGLVKPSQSLSLTCSVTGYSITSDYYWNWIRQFPGNKLEWMGYVTYDGSNNYNPSLKNRISITRDSSKNQFFLKLNSVISEDTATYYCARFGSSYWAMDYWGQGTSLTVSS
VL: QIVLTQSPAIMSASLGEAITLTCSASSSVSYMHWYQQKSGTSPKLLIYSTSNLASGVPSRFSGSGSGTFYSLTISSVEAEDAADYYCHQWYSYPWTFGGGTKLEIK

Assays:
[1] = biological target: LayV F clamp2 (prefusion Langya virus fusion glycoprotein ectodomain stabilised with the clamp2 molecular … (Langya virus (GenBank UUV47205.1), stabilised, N-linked glycans at N65 and N459)); test: ELISA; conditions: both partners purified
[2] = biological target: T1, prefusion clamp2 stabilized NiV F (Nipah virus, strain  (Q9IH63 …, UniProt Q9IH63, stabilised)); test: ELISA; conditions: both partners purified
T1 construct: also called Nipah virus F

| Binder | binding result [1] | binding result [2] |
| --- | --- | --- |
| B1 | no binding (tested: 50 μg/mL) | binds |
| B2 | no binding (tested: 50 μg/mL) | binds |
| B3 | no binding (tested: 50 μg/mL) | binds |
| B4 | no binding (tested: 50 μg/mL) | binds |
